The source of these data is US20220153839A1 (NBE THERAPEUTICS, published 2022).

For experiment [1], the target named is T1, hFc-hROR2 (extracellular domain of human ROR2 fused to the Fc domain of human IgG1) (human, UniProt Q01974 34-403).
T1 construct: extracellular domain; not shown: Fc domain of human IgG1
Kind of experiment: ELISA as for hFc-hROR1; third bar series, keyed 'hFc-hROR1' a second time on the sheet, taken as hFc-hROR2 by legend paragraph 27. How it is done:
(§1) The binding of each chimeric rabbit/human Fab to hROR1 and mROR1 fused with human IgG1 Fc (hFc-hROR1 and hFc-mROR1) was analyzed by ELISA. hFc-ROR1 or hFc-mROR1 were captured by anti-human IgG1 Fc antibody immobilized on plate and then incubated with hROR1 specific Fabs comprising a His-tag via detection with mouse anti-His tag.
(§2) ELISA: For ELISA (FIG. 2), each well of a 96-well Costar 3690 plate (Corning, Corning, N.Y.) was coated with 100 ng anti-human IgG1 Fc in 25 μL coating buffer (0.1 M Na₂CO₃, 0.1 M NaHCO₃, pH 9.6) for 1 h at 37° C. After blocking with 150 μL 3% (w/v) BSA/TBS for 1 h at 37° C., hFc-hROR1 or hFc-mROR1 was captured following incubation at 100 ng/50 μL for 1 h at 37° C. Then 100 ng/50 μL of Fab was applied in each well at 37° C. 2 h later, 50 μL of a 1:1000 dilution of a mouse anti-His tag mAb conjugated to horse radish peroxidase (HRP) (R&D Systems, Minneapolis, Minn.) in 1% (w/v) BSA/TBS was used to detect the Fab. To determine the epitopes (FIG. 4), hFc fusion proteins containing different domains of hROR1 were coated directly, followed by incubation with Fab before detection by mouse anti-His tag mAb conjugated to HRP. Washing with PBS was repeated and colorimetric detection was performed using 2,2′-azino-bis(3-ethylbenzthiazoline)-6-sulfonic acid (Roche) as substrate according to the manufacturer's directions. The absorbance was measured at 405 nm using a SpectraMax M5 microplate reader (Molecular Devices; Sunnyvale, Calif.) and SoftMax Pro software (Molecular Devices).

In another experiment the target is T2, hROR2 (human, UniProt Q01974).
T2 construct: full length, on the cell surface; also called 63-12 / hROR2; ROR2 on T47D cells
Kind of experiment: flow cytometry on 63-12 / hROR2 cells; anti-His Alexa Fluor 488. As for the experimental part: Flow cytometry: Cells were stained using standard flow cytometry methodology. Briefly, for purified anti-ROR1 Fab (FIG. 3), 0.1-1×10⁶ cells were stained with 1000 ng/100 μL of Fab on ice for 1 h. After washing twice with ice-cold flow cytometry buffer (PBS containing 1% (v/v) BSA, 0.1% sodium azide and 1 mM EDTA), the cells were incubated with a 1:1000 dilution of a mouse anti-His tag mAb conjugated to Alexa Fluor 488 (Qiagen) in 100 μL flow cytometry buffer on ice for 30 min. For purified anti-ROR1 IgG1 (FIG. 8), 0.1-1×10⁶ cells were blocked by 4% goat serum for 15 min at room temperature and then incubated with 100 ng/100 μL of IgG on ice for 1 h. After washing twice with ice-cold flow cytometry buffer, cells were stained with a 1:500 dilution of goat anti-human IgG, Fcγ pAbs conjugated to APC (Jackson ImmunoResearch) in 100 μL flow cytometry buffer on ice for 30 min. For commercial goat anti human ROR1 polyclonal antibody (FIG. 8), 0.1-1×10⁶ cells were stained with 200 ng/100 μL of Ab on ice for 1 h. […] Finally, 4′,6-diamidino-2-phenylindole (DAPI) was added to a final concentration of 100 ng/mL to exclude dead cells from the analysis. Cells were analyzed using a FACSCalibur instrument (BD Biosciences) and FlowJo analytical software (Tree Star, Ashland, Oreg.).

In another experiment the target is T3, Kr (human, UniProt Q01973).
T3 construct: Kringle domain of the extracellular domain; also called hFc-hROR1-Kr
Kind of experiment: ELISA on directly coated hFc fusion proteins of hROR1 domains; anti-His-HRP; A405. How it is done:
as §2

The next experiment concerns the target T4, Fr + Ki (human, UniProt Q01973).
T4 construct: Frizzled and Kringle domains of the extracellular domain; also called hFc-hROR1-Fr-Ki
Described as above. As for the experimental part:
as §2

The target in another experiment is T5, Fr.
T5 construct: also called hFc-hROR1-Fr
Described as above. As for the experimental part:
as §2

The next experiment deals with T6, Ig (human, UniProt Q01973).
T6 construct: Ig domain of the extracellular domain; also called hFc-hROR1-Ig
Described as above. How it is done:
as §2

For experiment [2], the target named is T7, hFc-hROR1 (extracellular domain of human ROR1 fused to the Fc domain of human IgG1) (human, UniProt Q01973 30-406).
T7 construct: extracellular domain; also called hFc-ROR1; not shown: Fc domain of human IgG1
The experiment in a line: SPR (Biacore X100); hFc-hROR1 captured by anti-human Fcγ antibody on CM5; Fab as analyte; 1:1 Langmuir fit. How it is done: (A) Shown are Biacore X100 sensorgrams obtained for the binding of each Fab to hFc-hROR1 captured by anti-human Fcγ antibody immobilized on CM5 chip after instantaneous background depletion. Fabs were injected at five different concentrations with the highest concentration indicated in table (B), one of the five concentrations was tested in duplicates. The equilibrium dissociation constant (Kd) was calculated from koff/kₒₙ (kₒₙ, association rate constant; koff, dissociation rate constant).
Surface plasmon resonance: Surface plasmon resonance for the measurement of the affinities of all Fabs to hFc-hROR1 and for epitope mapping studies were performed on a Biacore X100 instrument using Biacore reagents and software (GE Healthcare, Piscataway, N.J.). Anti-Human IgG (Fc) antibody was immobilized on a CM5 sensor chip following the instruction of Human Antibody Capture Kit (GE Healthcare, Piscataway, N.J.). The sensor chip included an empty flow cell for instantaneous background depletion. All binding assays used 1×HBS-EP+ running buffer (10 mM HEPES, 150 mM NaCl, 3 mM EDTA (pH 7.4), and 0.05% (v/v) Surfactant P20) and a flow rate of […]. […] The sensor chip was regenerated with […] from the Human Antibody Capture Kit without any loss of binding capacity. Calculation of association (kₒₙ) and dissociation (koff) rate constants was based on a 1:1 Langmuir binding model. The equilibrium dissociation constant (Kd) was calculated from koff/kₒₙ. For epitope mapping studies, each Fab was prepared at 500 nM alone in 1×HBS-EP+ running buffer and then injected in order as indicated in FIG. 5.

The target in experiment [3] is T8, hFc-mROR1 (extracellular domain of mouse ROR1 fused to the Fc domain of human IgG1) (human; mouse, UniProt Q9Z139 30-406).
T8 construct: extracellular domain; not shown: Fc domain of human IgG1
The experiment in a line: ELISA; hFc fusion captured by coated anti-human IgG1 Fc; anti-His-HRP; A405. How it is done:
as §1, §2

T6 sequence (Q01973 42-147 limits assumed): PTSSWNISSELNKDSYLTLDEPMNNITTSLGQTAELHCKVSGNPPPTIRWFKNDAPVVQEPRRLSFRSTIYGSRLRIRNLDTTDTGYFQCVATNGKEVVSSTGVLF
T5 sequence (chain, as listed by the source limits assumed): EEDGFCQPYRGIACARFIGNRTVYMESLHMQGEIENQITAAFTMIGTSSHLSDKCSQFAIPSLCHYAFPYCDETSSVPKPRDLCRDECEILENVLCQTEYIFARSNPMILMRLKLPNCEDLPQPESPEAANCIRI
T1 sequence (Q01974 34-403): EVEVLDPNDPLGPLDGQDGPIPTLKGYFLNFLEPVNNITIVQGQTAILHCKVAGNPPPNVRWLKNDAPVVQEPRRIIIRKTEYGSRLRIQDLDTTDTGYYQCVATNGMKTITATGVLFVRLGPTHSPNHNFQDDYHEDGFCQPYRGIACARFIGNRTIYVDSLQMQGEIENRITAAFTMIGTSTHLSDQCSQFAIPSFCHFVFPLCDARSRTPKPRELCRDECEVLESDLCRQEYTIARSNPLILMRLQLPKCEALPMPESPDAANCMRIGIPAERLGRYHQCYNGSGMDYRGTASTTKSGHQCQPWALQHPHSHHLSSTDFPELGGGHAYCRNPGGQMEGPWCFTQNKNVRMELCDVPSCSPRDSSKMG
T3 sequence (Q01973 312-391 limits assumed): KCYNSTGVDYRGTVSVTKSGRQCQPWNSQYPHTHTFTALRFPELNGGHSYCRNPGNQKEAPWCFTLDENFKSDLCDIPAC
T2 sequence (Q01974 34-943 limits assumed): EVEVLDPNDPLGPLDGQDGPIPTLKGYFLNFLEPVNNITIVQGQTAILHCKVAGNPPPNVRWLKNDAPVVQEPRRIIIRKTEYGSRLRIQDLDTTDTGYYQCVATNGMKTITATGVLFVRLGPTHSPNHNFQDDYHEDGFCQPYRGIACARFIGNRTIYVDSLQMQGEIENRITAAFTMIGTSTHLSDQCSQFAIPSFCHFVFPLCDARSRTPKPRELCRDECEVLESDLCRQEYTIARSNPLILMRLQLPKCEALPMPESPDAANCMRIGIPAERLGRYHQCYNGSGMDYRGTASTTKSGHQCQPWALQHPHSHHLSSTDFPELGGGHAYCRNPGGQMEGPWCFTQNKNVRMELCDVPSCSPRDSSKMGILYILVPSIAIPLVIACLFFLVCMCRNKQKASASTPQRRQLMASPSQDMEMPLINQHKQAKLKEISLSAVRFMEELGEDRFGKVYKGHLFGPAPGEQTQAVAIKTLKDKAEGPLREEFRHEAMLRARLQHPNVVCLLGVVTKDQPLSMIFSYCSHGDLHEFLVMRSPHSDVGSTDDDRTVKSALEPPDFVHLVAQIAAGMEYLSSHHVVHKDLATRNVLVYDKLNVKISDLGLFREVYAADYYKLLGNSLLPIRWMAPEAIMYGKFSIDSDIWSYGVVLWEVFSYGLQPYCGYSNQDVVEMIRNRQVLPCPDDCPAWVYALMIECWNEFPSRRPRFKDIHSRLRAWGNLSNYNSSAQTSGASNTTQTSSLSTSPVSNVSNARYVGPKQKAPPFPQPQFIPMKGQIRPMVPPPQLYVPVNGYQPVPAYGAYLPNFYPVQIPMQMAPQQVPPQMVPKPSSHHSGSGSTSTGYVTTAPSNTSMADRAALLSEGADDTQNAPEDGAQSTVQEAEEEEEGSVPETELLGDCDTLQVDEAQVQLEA
T8 sequence (Q9Z139 30-406): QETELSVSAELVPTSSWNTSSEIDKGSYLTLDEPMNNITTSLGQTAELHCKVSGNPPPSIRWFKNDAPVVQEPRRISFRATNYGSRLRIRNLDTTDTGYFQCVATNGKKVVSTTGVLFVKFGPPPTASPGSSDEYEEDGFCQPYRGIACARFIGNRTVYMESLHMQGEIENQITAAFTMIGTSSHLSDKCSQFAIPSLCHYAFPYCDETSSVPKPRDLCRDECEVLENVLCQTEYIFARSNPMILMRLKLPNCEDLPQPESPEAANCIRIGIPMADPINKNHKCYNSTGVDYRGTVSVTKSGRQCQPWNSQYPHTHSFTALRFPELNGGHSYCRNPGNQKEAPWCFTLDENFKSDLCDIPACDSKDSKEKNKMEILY
T4 sequence (Q01973 165-391 limits assumed): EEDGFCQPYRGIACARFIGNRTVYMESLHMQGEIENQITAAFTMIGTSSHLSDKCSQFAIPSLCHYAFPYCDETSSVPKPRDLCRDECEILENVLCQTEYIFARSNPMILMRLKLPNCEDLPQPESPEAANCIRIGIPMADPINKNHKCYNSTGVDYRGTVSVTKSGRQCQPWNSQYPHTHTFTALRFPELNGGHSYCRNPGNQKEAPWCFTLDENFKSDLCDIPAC
T7 sequence (Q01973 30-406): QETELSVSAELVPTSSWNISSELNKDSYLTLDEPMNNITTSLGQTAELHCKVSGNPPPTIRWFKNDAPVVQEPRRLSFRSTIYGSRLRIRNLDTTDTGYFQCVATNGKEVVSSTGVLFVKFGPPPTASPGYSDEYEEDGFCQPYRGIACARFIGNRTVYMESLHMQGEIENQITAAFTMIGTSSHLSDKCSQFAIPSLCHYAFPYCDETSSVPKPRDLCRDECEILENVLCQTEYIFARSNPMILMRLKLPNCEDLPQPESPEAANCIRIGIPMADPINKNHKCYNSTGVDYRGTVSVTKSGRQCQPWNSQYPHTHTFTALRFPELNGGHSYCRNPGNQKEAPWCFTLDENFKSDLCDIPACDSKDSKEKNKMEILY

B1: ERR1-TOP43 chimeric rabbit/human Fab (Fab, V domains shown)
VH: QSLEESGGRLVTPGTPLTLTCTVSGFSLSSYWMSWVRQAPGKGLEWIGAIYGSGNTYYASWAKGRFTISKTSTTVDLKITSPTTEDTATYFCARDVHSTATDLWGPGTLVTISS
VL: SYELTQLPSVSVSLGQTARITCGGNNIGSKAVNWYQQKPGLAPGLLIYNDDERPSGVPDRFSGSNSGDTATLTISGAQAGDEADYYCQLWDSSAGAYVFGGGTQLTVTG
notes: Chimeric rabbit/human Fab with His tag, expressed in E. coli (pET11a); lambda light chain
For B1, the binding result in experiment [1] is given as “no binding (tested: 100 ng/50 µL)”; with hROR2, “no binding (tested: 1000 ng/100 µL)”; with Kr it was “no binding”; in the experiment with Fr + Ki, “no binding”; with Fr it was “no binding”; in the experiment with Ig, “no binding”. In addition, the binding result in experiment [3] was “no binding (tested: 100 ng/50 µL)”. Also, in experiment [2], the Kd was found to be 1.11 nM. This molecule also came in with a koff in experiment [2] of 0.000501 s⁻¹. In experiment [2], this molecule registered a kon of 451000 M⁻¹ s⁻¹.

B2: ERR1-301 chimeric rabbit/human Fab (Fab, V domains shown)
VH: QEQLEESGGGLVTPGGSLTLTCTASGFTISTYHMSWVRQAPGKGLEWIGSIYAGSGSTYYASWVNGRFTISSNTTQNTVSLQMNSLTVADTATYFCARDHPSYGMDLWGPGTLVTVSS
VL: SYELTQLPSVSVSLGQTARITCGGNSIGSKAVNWYQQKPGLAPGLLIYDDDERPSGVPDRFSASNSGDTATLTISGAQAEDEADYYCQLWDSSAVAYVFGGGTQLTVTG
notes: as for B1
Consider B2, for which the binding result is listed as “no binding (tested: 100 ng/50 µL)” in experiment [1]; “no binding (tested: 1000 ng/100 µL)” with hROR2; “no binding” with Kr; “no binding” in the experiment with Fr + Ki; “no binding” in the experiment with Fr; “no binding” in the experiment with Ig. Besides, the binding result in experiment [3] is given as “no binding (tested: 100 ng/50 µL)”. In experiment [2], this molecule came in with a Kd of 118 nM. The koff in experiment [2] was found to be 0.1 s⁻¹. In experiment [2], the on-rate (kon) came out at 849000 M⁻¹ s⁻¹.

B3: ERR1-403 chimeric rabbit/human Fab (Fab, V domains shown)
VH: QEQLKESGRGLVQPGGSLKLSCKASGFDFSGWYMTWVRQAPGKGLEWIGTIGTTKGRTYYASWVNGRFTISSNAQNTVDLQMNSLTAADRATYFCVRGSDYFDLWGPGTLVTISS
VL: SYELTQLPSVSVSLGQTARITCGGNSIGSKAVNWYQQKPGLAPGLLIYDDDERPSGVPARFSGSNSGDTATLTISGAQAGDEADYYCQLWDSSAGAYVFGGGTQLTVTG
notes: as for B1
As for B3, the binding result in experiment [1] is “no binding (tested: 100 ng/50 µL)”; with hROR2 it was “no binding (tested: 1000 ng/100 µL)”; in the experiment with Kr, “no binding”; with Fr + Ki it was “no binding”; in the experiment with Fr, “no binding”; in the experiment with Ig it was “no binding”. In addition, the binding result in experiment [3] is “no binding (tested: 100 ng/50 µL)”. Binding in experiment [2] was characterised by a dissociation constant (Kd) of 41.6 nM. The koff in experiment [2] came out at 0.00128 s⁻¹. Further, in experiment [2], the kon amounted to 30800 M⁻¹ s⁻¹.

B4: ERR1-316 chimeric rabbit/human Fab (Fab, V domains shown)
VH: QEQLEESGGRLVTPGTPLTLTCTASGFFLSSYYVSWVRQAPGKGLEWIGAIGTGGSAYYASWAKSRSTITRNTNLSTVTLKMTSLTAADTATYFCARDHPNYGMDLWGPGTLVTVSS
VL: SYELTQLPSVSVSLGQTARITCGGNSIGSKAVNWYQQKPGLAPGLLIYDDDERPSGVPDRFSGSNSGDTATLTISGAQAGDEADYYCQLWDSSTGAYAFGGGTQLTVTG
notes: as for B1
B4: the binding result in experiment [1] is recorded as “no binding (tested: 100 ng/50 µL)”; with hROR2, “no binding (tested: 1000 ng/100 µL)”; in the experiment with Kr, “no binding”; with Fr + Ki, “no binding”; with Fr, “no binding”; with Ig, “no binding”. Moreover, the binding result in experiment [3] was “no binding (tested: 100 ng/50 µL)”. The Kd in experiment [2] was found to be 121 nM. Further, in experiment [2], the off-rate constant (koff) came out at 0.133 s⁻¹. In experiment [2], this molecule gave a kon of 1.1e+06 M⁻¹ s⁻¹.

B5: ERR1-409 chimeric rabbit/human Fab (Fab, V domains shown)
VH: QEQLVESGGRLVTPGGSLTLTCTASGFSLSSYYMGWVRQAPGKGLEWIGTIYGGSGSTWYASWVKGRFTISKTSTAVDLKITSLTTEDTATYFCARSYPGWTTEPYFDIWGPGTLVTVSS
VL: QFVLTQPQSVSGSLGQTVSISCNRDSGNIEDYYVHWYQQHPGKAPTTVIYNDDQRPSGVPDRFSGSIDSTSNSASLTITGLLAEDEADYYCLSSDSSAYVFGGGTQLTVTG
notes: as for B1
Take B5: the binding result is listed as “no binding (tested: 100 ng/50 µL)” in experiment [1]; “no binding (tested: 1000 ng/100 µL)” in the experiment with hROR2; “no binding” with Kr; “no binding” in the experiment with Fr + Ki; “no binding” in the experiment with Fr; “no binding” with Ig. The binding result in experiment [3] is “no binding (tested: 100 ng/50 µL)”. Besides, binding in experiment [2] was characterised by a dissociation constant (Kd) of 281 nM. Moreover, the koff in experiment [2] stood at 0.0162 s⁻¹. The kon in experiment [2] turned out to be 57500 M⁻¹ s⁻¹.
